Source: patent publication US8129345B2, “MUC1-IκB kinase complexes and their activities” (Dana-Farber Cancer Institute, Inc., priority 2006, dated 2012)

Legend:
IKKγ = IKKγ (Homo sapiens, UniProt Q9Y6K9); test: In vitro GST pull-down binding to IKKγ
Protocol: FIG. 5B is a pair of photographs of immunoblots showing an interaction between MUC1-CD and IKKγ. GST- and GST-IKKγ bound to glutathione beads were incubated with purified MUC1-CD. The precipitates were immunoblotted (IB) with anti-MUC1-C antibodies. Commassie blue staining of the gel was performed to confirm that equal amounts of GST- and GST-IKKγ were used in the experiment. The molecular weights of proteins (as indicated on the left of the photographs) are expressed as kilodaltons (kDa).
FIG. 5C is a pair of photographs of immunoblots. GST- and the indicated GST-MUC1-CD fusion proteins or fragments bound to glutathione beads were incubated with purified IKKγ. The precipitates were immunoblotted (IB) with anti-IKKγ antibody. Commassie blue staining of the gel was performed to confirm that equal amounts of GST- and GST-MUC1 proteins were used in the experiment. The molecular weights of proteins (as indicated on the left of the photographs) are expressed as kilodaltons (kDa).
FIG. 5D is a pair of photographs of immunoblots. GST and the indicated GST-IKKγ fusion proteins bound to glutathione beads were incubated with MUC1-CD. The precipitates were immunoblotted (IB) with anti-MUC1-C antibody. Commassie blue staining of the gel was performed to confirm that equal amounts of GST- and GST-IKKγ proteins were used in the experiment. The molecular weights of proteins (as indicated on the left of the photographs) are expressed as kilodaltons (kDa).
FIG. 11B is a pair of photographs of an immunoblot and Coomassie blue stained gel. GST and the indicated GST-MUC1-CD fusion proteins (MUC1-CD and MUC1-CD(mSRM)) bound to glutathione beads were incubated with IKKγ. The precipitates were immunoblotted (IB) with an anti-IKKγ antibody. Commassie blue staining of the gel was performed to confirm that equal amounts of GST- and GST-MUC1-CD proteins were used in the experiment. The molecular weights of proteins (as indicated on the left of the photographs) are expressed as kilodaltons (kDa).
In vitro binding assays. Purified GST-MUC1-CD (glutathione s-transferase fused to the MUC1-CD polypeptide) was cleaved with thrombin to remove the GST moiety. GST, GST-IKKβ (DiDonato et al. (1997) Nature 388:548-554), GST-IKKβ (1-458), GST-IKKβ (458-756), GST-IKKγ (Prajapati et al. (2002) J. Biol. Chem. 277:24331-24339), GST-IKKγ (1-196) or GST-IKKγ (197-419) were then incubated with the MUC1-CD for 1 hour at 25° C. In other experiments, GST, GST-MUC1-CD, GST-MUC1-CD(1-45) or GST-MUC1-CD(46-72) were incubated with purified IKKβ or IKKγ. Adsorbates to glutathione-conjugated beads were analyzed by immunoblotting.

IKKβ = IKKβ (Homo sapiens, UniProt O14920); test: In vitro incubation of IKKβ and IKKγ with ATP, phospho-IKKβ-Ser-181 immunoblot; type: biochemical; conditions: MUC1 protein added to the reaction
Sequence of IKKβ (O14920 whole entry, the tested form may be a part): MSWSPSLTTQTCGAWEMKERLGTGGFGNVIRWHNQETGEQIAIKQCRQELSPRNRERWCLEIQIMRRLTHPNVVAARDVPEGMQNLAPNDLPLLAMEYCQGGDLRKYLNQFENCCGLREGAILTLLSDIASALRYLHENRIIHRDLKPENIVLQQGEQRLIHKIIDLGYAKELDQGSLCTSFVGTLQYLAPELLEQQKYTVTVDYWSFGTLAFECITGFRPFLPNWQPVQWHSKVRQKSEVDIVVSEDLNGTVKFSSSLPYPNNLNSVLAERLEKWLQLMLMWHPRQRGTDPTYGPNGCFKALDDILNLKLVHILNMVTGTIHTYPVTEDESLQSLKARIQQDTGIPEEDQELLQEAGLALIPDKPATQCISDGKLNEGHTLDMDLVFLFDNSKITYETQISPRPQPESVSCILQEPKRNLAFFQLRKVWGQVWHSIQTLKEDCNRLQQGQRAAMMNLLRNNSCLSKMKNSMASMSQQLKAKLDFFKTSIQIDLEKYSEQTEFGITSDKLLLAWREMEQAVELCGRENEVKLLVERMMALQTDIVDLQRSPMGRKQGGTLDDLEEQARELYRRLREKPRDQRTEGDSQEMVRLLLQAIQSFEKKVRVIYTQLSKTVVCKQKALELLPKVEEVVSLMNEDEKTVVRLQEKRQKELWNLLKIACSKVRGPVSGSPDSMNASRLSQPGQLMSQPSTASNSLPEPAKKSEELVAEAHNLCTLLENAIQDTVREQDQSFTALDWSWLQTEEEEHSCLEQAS
Sequence of IKKβ (Q9Y6K9 whole entry partner, the tested form may be a part): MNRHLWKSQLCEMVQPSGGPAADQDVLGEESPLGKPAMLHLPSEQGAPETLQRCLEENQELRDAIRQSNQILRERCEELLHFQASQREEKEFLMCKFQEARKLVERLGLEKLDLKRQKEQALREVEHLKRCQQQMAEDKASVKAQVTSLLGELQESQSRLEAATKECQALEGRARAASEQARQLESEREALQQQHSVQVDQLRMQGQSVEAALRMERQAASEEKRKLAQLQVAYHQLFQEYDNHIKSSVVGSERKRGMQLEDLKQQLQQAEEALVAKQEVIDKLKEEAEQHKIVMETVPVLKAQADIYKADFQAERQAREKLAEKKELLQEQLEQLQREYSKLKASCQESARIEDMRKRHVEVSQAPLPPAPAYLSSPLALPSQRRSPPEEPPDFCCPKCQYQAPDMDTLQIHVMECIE
Protocol: FIG. 13 is a series of photographs of immunoblots. GST, and GST-IKKγ fusion proteins bound to glutathione beads were incubated with MUC1-CD, MUC1-CD(mSRM), or IKKβ proteins as indicated. The GST-pull down precipitates were immunoblotted (IB) with antibodies specific for (from top to bottom) phosphor-IKKβ-Ser-181 (first panel), IKKγ (second panel), IKKβ (third panel), or MUC1 (fourth panel) as indicated. The molecular weights of proteins (as indicated on the left of the photographs) are expressed as kilodaltons (kDa).

“MUC1-CD: 72 amino acid cytoplasmic domain of human MUC1, SEQ ID NO:2” was tested, and the “binding to IKKγ” value (IKKγ; GST pull-down with purified proteins, immunoblot) was “binds to purified IKKγ”, the “region of IKKγ bound by MUC1-CD” value (IKKγ; GST-IKKγ (1-196) and GST-IKKγ (197-419) incubated with MUC1-CD) was “binds to the C-terminal region (197-419) of IKKγ” and the “extent of IKKβ phosphorylation on Ser-181” value (IKKβ) was “increased significantly”.
